Results published in patent publication US20060153807A1, “Vector-mediated gene regulation in midbrain dopamine neurons” (priority 2005, published 2006).
Where a chain is given by its changes, count along the chain named. Names may count otherwise.

T1: citrate synthase (CS) (Sus scrofa, UniProt P00889)
T1 construct: purchased Sigma
T1 sequence (P00889 28-464): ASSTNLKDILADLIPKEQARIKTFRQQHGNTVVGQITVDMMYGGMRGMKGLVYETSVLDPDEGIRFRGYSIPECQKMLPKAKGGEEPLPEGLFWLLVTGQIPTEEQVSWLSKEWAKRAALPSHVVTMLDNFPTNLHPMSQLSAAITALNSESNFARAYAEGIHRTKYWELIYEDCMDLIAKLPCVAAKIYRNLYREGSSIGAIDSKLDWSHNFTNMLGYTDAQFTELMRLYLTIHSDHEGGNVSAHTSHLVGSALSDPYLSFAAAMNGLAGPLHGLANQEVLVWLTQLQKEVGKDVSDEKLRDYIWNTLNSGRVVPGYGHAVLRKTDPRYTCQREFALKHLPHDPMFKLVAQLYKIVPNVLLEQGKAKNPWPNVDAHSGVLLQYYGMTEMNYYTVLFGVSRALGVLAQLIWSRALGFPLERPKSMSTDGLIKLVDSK

B1: RNase A: negative control protein, obtained from Sigma (protein, UniProt P61823 27-150, looked up)
Ribonuclease pancreatic: KETAAAKFERQHMDSSTSAASSSNYCNQMMKSRNLTKDRCKPVNTFVHESLADVQAVCSQKNVACKNGQTNCYQSYSTMSITDCRETGSSKYPNCAYKTTQANKHIIVACEGNPYVPVHFDASV
B2: C106A: DJ-1 cysteine-to-alanine mutant at cysteine 106 (protein, UniProt Q99497 1-189, looked up, variant C106A)
chain: MASKRALVILAKGAEEMETVIPVDVMRRAGIKVTVAGLAGKDPVQCSRDVVICPDASLEDAKKEGPYDVVVLPGGNLGAQNLSESAAVKEILKEQENRKGLIAAIAAGPTALLAHEIGFGSKVTTHPLAKDKMMNGGHYTYSENRVEKDGLILTSRGPGTSFEFALAIVEALNGKEVAAQVKAPLVLKD
B3: C53A: DJ-1 cysteine-to-alanine mutant at cysteine 53 (protein, UniProt Q99497 1-189, looked up, variant C53A)
chain: B2 chain with C53A, A106C

Assays:
citrate synthase (CS) = molecular target: T1, citrate synthase (CS); assay: suppression of heat-induced aggregation of citrate synthase (chaperone assay); assay type: biochemical; conditions: for redox regulation: chaperone activity in the CS aggregation assay after DTT: preincubation with 0.5 mM DTT for 10 min at 4° C.; for chaperone activity: suppression of heat-induced CS aggregation: 0.8 μM CS, 43° C., DJ-1 0.5-4.0 μM
Protocol: (§1) FIG. 22 illustrates that DJ-1 is a redox-dependent molecular chaperone. (A) Aggregation of CS was monitored at 43° C. after addition of either 0.8 μM CS alone (black), or along with 8.0 μM RNase A (purple), 0.5 μM DJ-1 (aqua), 2.0 μM DJ-1 (blue), 4.0 μM DJ-1 (red), or 2.0 μM Hsp27 (green). (B) Aggregation of 0.8 μM CS after 30 min at 4° C. […] (C) Aggregation of insulin (26 μM) B chains induced by 20 mM DTT at 25° C. Insulin alone (black) or in the presence of 4.0 μM RNase A (purple), 0.5 μM DJ-1 (aqua), 2.0 μM DJ-1 (blue), 4.0 μM DJ-1 (red), or 2.0 μM Hsp27 (green). (D) CS thermal aggregation (unfilled bar) is suppressed by 4 μM DJ-1 (black bar), but chaperone activity is abrogated upon incubation of DJ-1 with 0.5 mM DTT for 10 min at 4° C. (gray bar). Further treatment of DTT-reduced DJ-1 with 10 mM H2O2 for 10 min at 4° C. leads to reactivation of CS suppression (hatched bar).
To test the redox regulation of DJ-1, the inventors assayed chaperone activity in the CS aggregation assay in the presence or absence of the reducing agent DTT. […] (FIG. 22D). […] To further test whether redox regulation might govern DJ-1 chaperone activity, reactivation studies using reduced DJ-1 were performed. DTT-reduced DJ-1 was incubated with H2O2 (10 mM in aggregation buffer for 10 min at 4° C. followed by dialysis against aggregation buffer for 2 h), and subsequently chaperone activity was measured in the CS thermal aggregation assay. […] This was not an indirect effect of residual H2O2 on CS aggregation, as H2O2 treatment of CS increased aggregation (unpublished data).
(§2) Aggregation assays. CS aggregation was performed in 40 mM HEPES (pH 7.8), 20 mM potassium hydroxinde, 50 mM potassium chloride, and 10 mM ammonium sulfate, and monitored in a thermostat-controlled fluorescence spectrophotometer with excitation and emission wavelengths at 500 nm and slit widths at 2.5 nm. Insulin aggregation was performed as described (Giasson et al. 2000). CS, insulin, RNase A, and GST were obtained from Sigma; human Hsp27 was obtained from Stressgen.

αSyn = αSyn (Homo sapiens, UniProt P37840); assay: αSyn protofibril formation assay in vitro; assay type: biochemical; conditions: 200 μM αSyn, 100 μM test protein (molar ratio 1:2), 2 h at 55° C.
Protocol: The analysis of DJ-1 chaperone function to a candidate DJ-1 substrate, αSyn (FIG. 23) was extended.
αSyn protofibril and fibril formation assays were performed essentially as described (Uversky et al.). Briefly, protofibrils were formed by incubation of 200 μM WT synuclein with 100 μM DJ-1 or control chaperone protein in PBS for 2 h at 55° C. Samples were mixed with SDS loading buffer and analyzed by SDS-PAGE and Western blotting using αSyn LB509 antibody (Zymed). Quantitation of high molecular weight αSyn was performed using NIH Image J. Integrated pixel intensity of high molecular weight synuclein for each sample was normalized to monomeric synuclein intensity.

[1] = system: glutathione S-transferase (GST); conditions: GST 0.4 μM, test protein 2 μM
Protocol: DJ-1 chaperone activity was quantified in the suppression of heat-induced aggregation of citrate synthase (CS) and glutathione S-transferase (GST), two well-characterized protein chaperone assays. These proteins lose their native conformation and undergo aggregation during incubation at 43° C. and 60° C., respectively.

insulin = assay: aggregation suppression of reduced insulin (DTT-induced B chain aggregation); assay type: biochemical; conditions: 20 mM DTT
Protocol: as §1, §2

DJ-1-deficient ES cells = assay: rescue of DJ-1-deficient ES cells from H2O2 toxicity, MTT assay; conditions: transient transfection of expression plasmid, 10 μM H2O2 for 15 h, vs vector alone
Protocol: 48 h after transfection, cells were exposed to 10 μM H2O2 for 15 h and then assayed by MTT reduction. […] Data are shown as the mean±SEM and were analyzed by ANOVA with Fisher's post-hoc test.
(C) DJ-1-deficient ES cells were transiently transfected with vector alone, WT DJ-1, or DJ-1 cysteine mutants, and exposed to 10 μM H2O2 for 15 h followed by MTT assay. […] Data are shown as the mean±SEM and were analyzed by ANOVA with Fisher's post-hoc test. * p<0.05.
ES cells plated in 96-well format (2.3×10^4 cells/well) were treated for 15 hours with H2O2 in ES media deficient in β-mercaptoethanol (Abeliovich et al. 2000). Cell viability (as a percent of untreated control) was determined by MTT assay in triplicate (Fezoui et al. 2000).
The inventors further investigated the activity of the cysteine-mutant forms of human DJ-1 in vivo in the complementation of DJ-1-deficient ES cells.

[2] = system: Undifferentiated ES cells; assay: rescue from Q333P mutant NFL toxicity in undifferentiated ES cells, MTT reduction assay; assay type: cell-based; conditions: 72 h after transfection
Protocol: FIG. 30 depicts the additional studies of DJ-1 mutations. […] Cells from FIG. 4M were quantified via ToPro3 nuclear staining and are expressed as number of cells per field from ten independent fields in each of three wells. […] GFP positive transfected cells from FIG. 5A-5L were quantified and are expressed as number of transfected cells per field from ten independent fields in each of three wells. […] After 72 h, cells were assayed by MTT reduction assay (which detects reduction of 3-(4,5-dimethylthiazol-2-yl)-2,5-diphenyltetrazolium bromide by metabolic enzymes) (Martinat et al. 2004). […] Undifferentiated ES cells were transfected with Q333P mutant NFL along with WT human DJ-1, C53A mutant DJ-1, or vector control. After 72 h, cells were assayed by MTT reduction assay (Martinat et al. 2004). […] Cells were differentiated for 72 h and lysed to produce Triton X-100-soluble and -insoluble fractions. Lysates were exposed to Western blotting with an antibody against transfected human NFL.

Row | Molecule | redox regulation: chaperone activity in the CS aggregation assay after DTT (citrate synthase (CS)) | inhibition of αSyn protofibril formation (αSyn) | suppression of GST thermal aggregation [1] | chaperone activity: suppression of reduced insulin aggregation (insulin) | chaperone activity: suppression of heat-induced CS aggregation (citrate synthase (CS)) | viability of H2O2-treated DJ-1 knockout cells after transfection (DJ-1-deficient ES cells) | rescue from Q333P mutant NFL toxicity [2]
1 | Hsp27: well-described small cytoplasmic chaperone, human Hsp27, obtained from Stressgen; positive control [reference compound] | did not modify suppression of CS aggregation | failed to inhibit the generation of αSyn protofibrils | suppressed | effectively inhibited the aggregation of insulin | – | – | –
2 | B1 | – | – | – | neither DJ-1 nor the negative control protein RNase A displayed chaperone activity | failed to demonstrate chaperone activity | – | –
3 | B2 | unaffected | – | – | – | does not alter the basal activity | robustly rescued DJ-1 knockout cells from H2O2 toxicity | –
4 | B3 | – | – | – | – | completely abrogates chaperone activity | failed to protect from H2O2 toxicity | unable to rescue cells from Q333P mutant NFL toxicity
